Measured values taken from patent publication US20240182596A1 (TUBULIS, published 2024).

How the values were obtained:
[1] = biological target: T1, human Napi2b-mCherry on HEK293 cells (human, UniProt O95436 1-690); test: flow cytometry on HEK293 cells expressing human Napi2b-mCherry (panel Napi2b-HEK293), Alexa-dye anti-human IgG H+L secondary antibody, MFI ratio to the non-specific binding control
T1 construct: also called Napi2b (SLC34A2); HEK293 cells overexpressing Napi2b
T1 sequence: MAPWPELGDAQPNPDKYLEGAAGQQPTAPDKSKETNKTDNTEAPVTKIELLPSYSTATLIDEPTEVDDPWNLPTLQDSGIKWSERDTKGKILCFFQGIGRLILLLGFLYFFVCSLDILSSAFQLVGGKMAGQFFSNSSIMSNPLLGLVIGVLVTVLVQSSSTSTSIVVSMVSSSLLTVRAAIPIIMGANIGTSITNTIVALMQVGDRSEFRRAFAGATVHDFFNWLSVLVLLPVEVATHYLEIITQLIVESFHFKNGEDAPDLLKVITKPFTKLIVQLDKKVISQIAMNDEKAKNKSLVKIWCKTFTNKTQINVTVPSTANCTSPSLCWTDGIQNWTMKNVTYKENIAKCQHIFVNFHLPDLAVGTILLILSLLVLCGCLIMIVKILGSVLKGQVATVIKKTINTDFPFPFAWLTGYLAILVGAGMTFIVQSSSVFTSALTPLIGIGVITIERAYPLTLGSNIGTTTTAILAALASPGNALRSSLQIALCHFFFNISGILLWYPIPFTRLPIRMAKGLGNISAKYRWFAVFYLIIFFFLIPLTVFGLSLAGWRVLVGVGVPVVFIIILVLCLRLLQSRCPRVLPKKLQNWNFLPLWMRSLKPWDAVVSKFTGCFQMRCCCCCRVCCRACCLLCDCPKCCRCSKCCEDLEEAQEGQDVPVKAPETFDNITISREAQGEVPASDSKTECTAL

[2] = biological target: T2, recombinant human FcγRI (FcγR-SmBiT, Lumit assay) (human, UniProt P12314 16-292); test: Lumit FcγRI Binding Immunoassay (Promega), competition with Tracer-LgBiT for FcγRI-SmBiT, falling luminescence means binding, n=1
T2 construct: Kit reagent (Promega); also called FcγRI (CD64); not shown: SmBiT label of the kit

[3] = biological target: T3, FcγRIIa (CD32) (H131) (Fused to the SmBiT luciferase fragment (Promega Lumit reagent), not carried in the letters); test: Lumit FcγRIIa (H131) Binding Immunoassay (Promega), left panel FcγRIIa (CD32) (H131), competition with Tracer-LgBiT for FcγR-SmBiT, n=1
T3 construct: m20 joins both polymorphic variants; also called H131 variant of m20; not shown: SmBiT tag (and any linker or purification tag) of Promega's FcγR-SmBiT fusion
T3 chain: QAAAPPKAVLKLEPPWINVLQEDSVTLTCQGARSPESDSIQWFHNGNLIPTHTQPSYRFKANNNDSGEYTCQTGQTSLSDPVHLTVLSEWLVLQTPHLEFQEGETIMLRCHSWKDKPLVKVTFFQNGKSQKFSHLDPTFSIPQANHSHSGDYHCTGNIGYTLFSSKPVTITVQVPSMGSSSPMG

[4] = biological target: T4, FcγRIIIa (CD16) (F158) (Homo sapiens, UniProt P08637); test: Lumit FcγRIIIa (F158) Binding Immunoassay (Promega), right panel FcγRIIIa (CD16) (F158), competition with Tracer-LgBiT for FcγR-SmBiT, falling luminescence means binding, n=1
T4 construct: m21 joins both polymorphic variants; also called F158 variant of m21

[5] = biological target: T5, FcγRIIIa (CD16) (V158) (Homo sapiens, UniProt P08637); test: Lumit FcγRIIIa (V158) Binding Immunoassay (Promega), left panel FcγRIIIa (CD16) (V158), competition with Tracer-LgBiT for FcγR-SmBiT, falling luminescence means binding, n=1
T5 construct: m21 joins both polymorphic variants; also called V158 variant of m21

[6] = biological target: T6, human NaPi2b on NaPi2b-positive cell lines OVCAR-3 and HCC-78 (human, UniProt O95436 1-690); test: cell-based or functional assay
T6 sequence: T1 sequence

[7] = biological target: T7, human Napi2a-mCherry on HEK293 cells (human, UniProt Q06495 1-639); test: flow cytometry on HEK293 cells expressing human Napi2a-mCherry (panel Napi2a-HEK293), MFI ratio to the non-specific binding control
T7 construct: whole, on cells; also called Napi2a (SLC34A1); not shown: mCherry fusion
T7 sequence (looked up): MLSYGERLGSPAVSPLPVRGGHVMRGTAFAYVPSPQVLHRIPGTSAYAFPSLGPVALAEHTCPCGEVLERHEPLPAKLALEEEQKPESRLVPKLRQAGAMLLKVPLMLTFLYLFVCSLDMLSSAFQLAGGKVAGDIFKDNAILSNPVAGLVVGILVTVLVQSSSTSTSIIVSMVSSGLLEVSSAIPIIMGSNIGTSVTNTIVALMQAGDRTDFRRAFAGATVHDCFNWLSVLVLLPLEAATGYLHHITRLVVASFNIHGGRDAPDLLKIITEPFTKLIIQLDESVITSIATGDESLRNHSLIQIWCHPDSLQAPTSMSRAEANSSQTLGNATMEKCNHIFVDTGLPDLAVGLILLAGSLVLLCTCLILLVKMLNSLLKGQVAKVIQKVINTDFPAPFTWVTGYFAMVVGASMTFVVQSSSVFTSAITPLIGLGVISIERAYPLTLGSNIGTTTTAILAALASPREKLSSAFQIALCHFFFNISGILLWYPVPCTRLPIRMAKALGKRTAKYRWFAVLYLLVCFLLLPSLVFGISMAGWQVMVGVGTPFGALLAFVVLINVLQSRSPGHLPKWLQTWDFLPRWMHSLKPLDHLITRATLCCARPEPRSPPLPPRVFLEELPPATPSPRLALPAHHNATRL

[8] = biological target: T8, human Napi2c-mCherry on HEK293 cells (human, UniProt Q8N130 1-599); test: flow cytometry on HEK293 cells expressing human Napi2c-mCherry (panel Napi2c-HEK293), MFI ratio to the non-specific binding control
T8 construct: whole, on cells; also called Napi2c (SLC34A3); not shown: mCherry fusion
T8 sequence (looked up): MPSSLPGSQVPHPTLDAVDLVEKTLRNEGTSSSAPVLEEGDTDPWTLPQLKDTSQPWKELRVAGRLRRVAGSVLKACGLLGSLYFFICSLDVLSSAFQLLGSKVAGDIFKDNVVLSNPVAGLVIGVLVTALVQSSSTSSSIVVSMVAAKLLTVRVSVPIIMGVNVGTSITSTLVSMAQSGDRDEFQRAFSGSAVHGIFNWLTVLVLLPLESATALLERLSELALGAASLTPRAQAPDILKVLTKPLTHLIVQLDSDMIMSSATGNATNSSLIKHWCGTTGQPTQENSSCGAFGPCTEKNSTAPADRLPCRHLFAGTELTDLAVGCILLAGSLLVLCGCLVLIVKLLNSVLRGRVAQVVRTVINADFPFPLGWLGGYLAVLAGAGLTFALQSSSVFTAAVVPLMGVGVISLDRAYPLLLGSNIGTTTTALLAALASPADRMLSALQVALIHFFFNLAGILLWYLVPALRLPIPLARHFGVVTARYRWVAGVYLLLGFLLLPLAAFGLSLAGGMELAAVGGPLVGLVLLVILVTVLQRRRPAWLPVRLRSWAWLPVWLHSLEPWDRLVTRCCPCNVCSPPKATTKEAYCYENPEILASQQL

T2 sequence (P12314 16-292): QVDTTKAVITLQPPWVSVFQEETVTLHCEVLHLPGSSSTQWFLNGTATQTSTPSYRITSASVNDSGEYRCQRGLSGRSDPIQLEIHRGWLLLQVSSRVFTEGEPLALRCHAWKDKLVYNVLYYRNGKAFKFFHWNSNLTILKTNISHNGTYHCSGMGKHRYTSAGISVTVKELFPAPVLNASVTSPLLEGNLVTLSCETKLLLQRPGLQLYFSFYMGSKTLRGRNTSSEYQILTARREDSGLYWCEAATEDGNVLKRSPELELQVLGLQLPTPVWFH
T4 sequence (P08637 17-208 limits assumed): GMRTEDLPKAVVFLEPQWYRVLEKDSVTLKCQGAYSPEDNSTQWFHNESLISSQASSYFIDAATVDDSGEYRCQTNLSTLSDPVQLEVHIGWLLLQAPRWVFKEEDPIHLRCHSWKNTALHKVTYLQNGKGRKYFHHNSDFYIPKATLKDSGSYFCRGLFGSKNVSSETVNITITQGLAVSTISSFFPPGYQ
T5 sequence (P08637 17-208 F176V limits assumed): as the sequence (P08637 17-208 limits assumed) above, with F160V counted along it

B1: AV25-P5(PEG24)-VC-PAB-Exatecan DAR8 ADC (antibody, human IgG1, kappa, L234A L235A)
heavy: not shown
light: DIQMTQSPSSLSASVGDRVTITCSASQDIGNFLNWYQQKPGKTVKVLIYYASSLYSGVPSRFSGSGSGTDYTLTISSLQPEDFATYYCQQYSKLPLTFGQGTKLELKRTVAAPSVFIFPPSDEQLKSGTASVVCLLNNFYPREAKVQWKVDNALQSGNSQESVTEQDSKDSTYSLSSTLTLSKADYEKHKVYACEVTHQGLSSPVTKSFNRGEC
modifications: P5(PEG24)-VC-PAB-Exatecan linker-payload on the interchain cysteine (1 per light chain, DAR8); P5(PEG24)-VC-PAB-Exatecan linker-payload on interchain cysteines (up to 3 per heavy chain, DAR8)
notes: also called TUB-040
EC50 (read off the curve) [1]: ~0.9 nM | binding result [2]: binds | binding result [3]: no binding | binding result [4]: binds | binding result [5]: binds | IC50 of cytotoxicity (resazurin assay, 7 days) on HCC-78, against the anti-Napi2b comparison ADC [6]: 15.5 fold lower IC50 | binding result [7]: no binding (tested: 200 nM) | binding result [8]: no binding (tested: 200 nM)
